# B1: Arabidopsis thaliana tetratricopeptide domain-containing thioredoxin (AtTDX), non-irradiated (enzyme, UniProt Q8VWG7 1-380, looked up)
# chain: MVDAIQVAELRRFVEQLKLNPSILHDPSLVFFKEYLRSLGAQVPKIEKTERDYEDKAETKPSFSPKHDDDDDDIMESDVELDNSDVVEPDNEPPQPMGDPTAEVTDENRDDAQSEKSKAMEAISDGRFDEAIEHLTKAVMLNPTSAILYATRASVFLKVKKPNAAIRDANVALQFNSDSAKGYKSRGMAKAMLGQWEEAAADLHVASKLDYDEEIGTMLKKVEPNAKRIEEHRRKYQRLRKEKELQRAERERRKQQEAQEREAQAALNDGEVISIHSTSELEAKTKAAKKASRLLILYFTATWCGPCRYMSPLYSNLATQHSRVVFLKVDIDKANDVAASWNISSVPTFCFIRDGKEVDKVVGADKGSLEQKIAQHSSSK
# notes: AtTDX, Arabidopsis thaliana tetratricopeptide domain-containing thioredoxin; 380 amino acids, 42 kDa; three TPR domains at the amino terminus and a thioredoxin domain at the carboxyl terminus; Mixture of LMW (mainly tetrameric) and HMW forms; also called non-irradiated AtTDX; 0 kGy
# Target: the molecule itself
# Test: SEC; Superdex 200 10/300 GL, FPLC, 4 °C, 50 mM HEPES pH 8.0, 100 mM NaCl, 0.5 mL/min; size against standard proteins
protein,measurement,value
B1,stoichiometry N,4

# — paper PMC4661877, “Enhancement of Chaperone Activity of Plant-Specific Thioredoxin through γ-Ray Mediated Conformational Change” (International Journal of Molecular Sciences, 2015)
